Several values for one entry are separate records, joined by “and”; a condition that tells them apart may be missing. Identical values can stand only once.
Assays:
rhesus IL17RB = molecular target: T1, rhesus IL17RB (Macaca mulatta, UniProt H9FWT9); assay: ELISA, SM17 binding to coated IL-17RB protein (rhesus); set-up: species or system rhesus monkey; details: two wells
T1 construct: purchased R&D systems
T1 sequence (H9FWT9 18-502): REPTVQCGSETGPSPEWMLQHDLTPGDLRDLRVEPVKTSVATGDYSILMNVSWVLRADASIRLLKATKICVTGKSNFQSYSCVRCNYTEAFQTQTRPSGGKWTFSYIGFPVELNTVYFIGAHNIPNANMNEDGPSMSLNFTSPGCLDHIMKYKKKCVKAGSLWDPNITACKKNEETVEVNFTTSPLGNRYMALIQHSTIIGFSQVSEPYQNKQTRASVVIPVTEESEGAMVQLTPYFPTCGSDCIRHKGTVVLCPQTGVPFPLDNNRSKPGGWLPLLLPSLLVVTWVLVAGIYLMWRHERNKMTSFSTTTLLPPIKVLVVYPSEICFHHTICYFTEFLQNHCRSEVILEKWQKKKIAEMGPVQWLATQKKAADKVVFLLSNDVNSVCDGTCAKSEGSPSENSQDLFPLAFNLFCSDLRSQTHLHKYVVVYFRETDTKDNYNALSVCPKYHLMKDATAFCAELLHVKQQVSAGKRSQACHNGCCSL
Description: A standard enzyme-linked immunosorbent assay (ELISA) method was used to determine the species specificity of SM17 against IL-17RB proteins. Briefly, IL-17RB proteins from human, mouse, cynomolgus or rhesus monkey (R&D systems, Minneapolis, MN) were diluted to 2.5 μg/ml in PBS and 50 μl of IL-17RB proteins were added to each well of ELISA strip. The strips were sealed with parafilm and incubated at 4° C. overnight for coating.
On the next day, strips were washed thrice with washing buffer (0.05% Tween 20 in PBS) and blocked with 100 μl per well with blocking buffer (3% BSA in PBS) for 2 hours RT before serially diluted SM17 (at a final concentration of 10, 2, 0.4, 0.08, 0.016, 0.0032, and 0.00064 μg/ml, respectively) was added.

IL-17RB = molecular target: T2, IL-17RB (Homo sapiens, UniProt Q9NRM6); assay: Bio-Layer Interferometry (Octet), SM17 binding kinetics to human IL17RB; details: trials 1 and 2
T2 construct: purchased R&D systems
T2 sequence (Q9NRM6 18-502): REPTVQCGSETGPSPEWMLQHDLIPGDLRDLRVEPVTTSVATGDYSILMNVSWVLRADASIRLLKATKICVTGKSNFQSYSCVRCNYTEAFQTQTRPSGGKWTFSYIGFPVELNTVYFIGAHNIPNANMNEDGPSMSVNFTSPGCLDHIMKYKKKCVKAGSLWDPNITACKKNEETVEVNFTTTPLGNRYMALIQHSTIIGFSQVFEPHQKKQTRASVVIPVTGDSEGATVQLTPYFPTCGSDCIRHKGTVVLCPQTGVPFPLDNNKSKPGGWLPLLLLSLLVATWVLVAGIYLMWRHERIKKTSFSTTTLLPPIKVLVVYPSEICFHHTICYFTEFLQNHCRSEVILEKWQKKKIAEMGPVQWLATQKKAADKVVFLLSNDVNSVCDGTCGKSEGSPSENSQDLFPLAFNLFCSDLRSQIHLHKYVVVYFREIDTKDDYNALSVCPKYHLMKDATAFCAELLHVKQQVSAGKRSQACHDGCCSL
Description: (§1) Bio-Layer Interferometry analysis (Octet ReD96 system, Sartorius) was employed to determine the binding affinity of SM17 against human and cynomolgus monkey IL17RB protein (R&D systems). Briefly, SM17 (20 μg/mL) was immobilized on biosensors via interactions with anti-human Fab CH1; serially diluted Cyno-IL17RB and Human-IL17RB (at a concentration of 158.7 nM, 79.4 nM and 39.7 nM, respectively) were subsequently added following standard operation protocols of the Octet ReD96 system to plot out the association and dissociation curve. Irrelevant antibody (SM03, anti-human CD22 chimeric IgG1 antibody, SinoMab BioScience Limited) was used as the control reference. Of note, the KD is within picomolar-single digit nanomolar range.

Cyno-IL17RB = assay: Bio-Layer Interferometry (Octet), SM17 binding kinetics to cynomolgus IL17RB; set-up: species or system cynomolgus monkey; details: trials 1 and 2
Description: as §1

TSLP = molecular target: T3, TSLP (Homo sapiens, UniProt Q969D9); assay: ELISA, antigen binding specificity of bsBp (TSLP); set-up: key: −: no binding; +: weak; ++: moderate; +++: strong binding; N/A refers to no binding affinity; details: 33.5 nM; antigen coated at 2 μg/mL
T3 construct: purchased R&D systems
Description: Binding specificities of bsBp were evaluated by standard ELISA assays. Briefly, ELISA strips were coated with the respective target antigens, including IL17RB, IL-33, or TSLP (R&D systems) at a final concentration of 2 μg/mL. Bispecific antibodies were added at 33.5 nM to ELISA strips coated with the desired antigen. After incubation under room temperature for 2 hours, ELISA strips were washed five times with PBS. […] No result is provided for SM17-human TSLPR as the yield was too low to be detected.

IL-33 = molecular target: T4, IL-33 (Homo sapiens, UniProt O95760); assay: Bio-Layer Interferometry (Octet), binding kinetics of bsBp to human IL-33
T4 construct: purchased R&D systems
T4 sequence (O95760 95-270): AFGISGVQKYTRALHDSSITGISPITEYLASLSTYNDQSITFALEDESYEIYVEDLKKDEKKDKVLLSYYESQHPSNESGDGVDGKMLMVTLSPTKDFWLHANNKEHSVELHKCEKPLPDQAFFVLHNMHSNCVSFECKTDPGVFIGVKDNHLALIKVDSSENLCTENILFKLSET
Description: The binding affinity of bsBp to the targeted alarmins was determined using a bio-Layer Interferometry analysis (Octet ReD96 system, Sartorius). bsBp or SM17 (20 μg/mL) was immobilized on biosensors via binding to anti-human Fab CH1 region; serially diluted human IL33 and TSLP (158.7 nM, 79.4 nM, 39.7 nM) (R&D systems) were added to plot the association and dissociation curve according to the manufacturer's specification. Biosensors immobilized with irrelevant antibody (SM03, anti-human CD22 chimeric IgG1 antibody, SinoMab BioScience Limited, 20 μg/mL) were used as control reference.

- OD 450 nm Absorption, rhesus IL17RB (rhesus IL17RB; SM17 0.016 μg/mL): 0.27 and 0.17
- OD 450 nm Absorption, rhesus IL17RB (rhesus IL17RB; SM17 0.08 μg/mL): 0.51 and 0.58
- OD 450 nm Absorption, rhesus IL17RB (rhesus IL17RB; SM17 0.4 μg/mL): 1.12 and 1.17
- OD 450 nm Absorption, rhesus IL17RB (rhesus IL17RB; SM17 2 μg/mL): 1.40 and 1.45
- OD 450 nm Absorption, rhesus IL17RB (rhesus IL17RB; SM17 10 μg/mL): 1.57 and 1.59
- Ka (IL-17RB): 222000 M⁻¹ s⁻¹ and 183000 M⁻¹ s⁻¹
- Ka (Cyno-IL17RB): 32100 M⁻¹ s⁻¹ and 42100 M⁻¹ s⁻¹
- Kdis (Cyno-IL17RB): 2.73e-05 s⁻¹ and 0.000215 s⁻¹
- Intensity of specific antigen binding, TSLP coated on ELISA strips (TSLP): +
- Kd (IL-33): 659 µM
- Kdis (IL-33): 17.9 s⁻¹
- Ka (IL-33; bsBp or SM17 immobilized at 20 μg/mL): 27200 M⁻¹ s⁻¹
Substance: SM17: humanized anti-IL17RB monoclonal antibody, human IgG4 isotype; HC SEQ ID NO: 32, LC SEQ ID NO: 33
